From IntAct's records for PubMed 20360680
Substitutions are numbered along the chain they refer to.

B1: Protein bicaudal D homolog 2 (Mus musculus), Q921C5 (parent)
chain: MSAPSEEEEYARLVMEAQPEWLRAEVKRLSHELAETTREKIQAAEYGLAVLEEKHQLKLQFEELEVDYEAIRSEMEQLKEAFGQAHTNHKKVAADGESREESLIQESASKEQYYVRKVLELQTELKQLRNVLTNTQSENERLTSVAQELKEINQNVEIQRGRLRDDIKEYKFREARLLQDYSELEEENISLQKQVSVLRQNQVEFEGLKHEIKRLEEETEYLNSQLEDAIRLKEISERQLEEALETLKTEREQKNNLRKELSHYMSINDSFYTSHLQVSLDGLKFSDDTVTAEPNNDAEALVNGFEHSGLVKSSLDNKTSTPRKDGLAPPSPSLVSDLLSELHISEIQKLKQQLVQMEREKVGLLATLQDTQKQLEQARGTLSEQHEKVNRLTENLSALRRLQAGKERQTSLDNEKDRDSHEDGDYYEVDINGPEILACKYHVAVAEAGELREQLKALRSTHEAREAQHAEEKGRYEAEGQALTEKISLLEKASHQDRELLAHLEKELKKVSDVAGETQGSLNVAQDELVTFSEELANLYHHVCMCNNETPNRVMLDYYREGQGKAGRTSPEGRGRRSPVLLPKGLLATEVGRADGGTGDNSPSPSSSLPSPLSDPRREPMNIYNLIAIIRDQIKHLQAAVDRTTELSRQRIASQELGPAVDKDKEALMEEILKLKSLLSTKREQITTLRTVLKANKQTAEVALANLKSKYENEKAMVTETMMKLRNELKALKEDAATFSSLRAMFATRCDEYITQLDEMQRQLAAAEDEKKTLNSLLRMAIQQKLALTQRLELLELDHEQTRRGRSKAASKAKPASPSL
B2: Ras-related protein Rab-6A (Homo sapiens), P20340 (parent)
chain: MSTGGDFGNPLRKFKLVFLGEQSVGKTSLITRFMYDSFDNTYQATIGIDFLSKTMYLEDRTVRLQLWDTAGQERFRSLIPSYIRDSTVAVVVYDITNVNSFQQTTKWIDDVRTERGSDVIIMLVGNKTDLADKRQVSIEEGERKAKELNVMFIETSAKAGYNVKQLFRRVAAALPGMESTQDRSREDMIDIKLEKPQEQPVSEGGCSC
partner: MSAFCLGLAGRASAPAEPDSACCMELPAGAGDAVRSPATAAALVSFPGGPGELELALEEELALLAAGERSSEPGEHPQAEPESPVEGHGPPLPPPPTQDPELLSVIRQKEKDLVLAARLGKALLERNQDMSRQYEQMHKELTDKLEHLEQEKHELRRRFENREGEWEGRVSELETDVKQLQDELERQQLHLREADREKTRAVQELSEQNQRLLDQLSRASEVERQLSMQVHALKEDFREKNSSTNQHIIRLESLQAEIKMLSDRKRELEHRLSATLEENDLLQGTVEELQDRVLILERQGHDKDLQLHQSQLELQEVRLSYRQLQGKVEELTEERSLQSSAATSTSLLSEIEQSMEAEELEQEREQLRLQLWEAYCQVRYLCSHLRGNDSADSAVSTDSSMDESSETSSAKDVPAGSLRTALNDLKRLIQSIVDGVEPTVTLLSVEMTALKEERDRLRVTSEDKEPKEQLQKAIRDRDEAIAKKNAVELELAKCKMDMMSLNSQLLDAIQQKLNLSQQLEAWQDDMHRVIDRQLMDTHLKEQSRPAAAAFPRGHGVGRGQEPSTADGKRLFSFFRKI
B3: Ras-related protein Rab-6A (Mus musculus), P35279 (parent)
chain: B2 chain with T3A, S202N
B4: Ras-related protein Rab-6A (Mus musculus), P35279 (parent)
chain: B2 chain with T3A, S202N
partner: B2 partner
B5: BICD family-like cargo adapter 1 (Mus musculus), A0JNT9 (parent)
chain: B2 partner

Variants of: B1
Details: with rab6a_mouse Rab6a
Target sequence in this assay (P35279 whole entry): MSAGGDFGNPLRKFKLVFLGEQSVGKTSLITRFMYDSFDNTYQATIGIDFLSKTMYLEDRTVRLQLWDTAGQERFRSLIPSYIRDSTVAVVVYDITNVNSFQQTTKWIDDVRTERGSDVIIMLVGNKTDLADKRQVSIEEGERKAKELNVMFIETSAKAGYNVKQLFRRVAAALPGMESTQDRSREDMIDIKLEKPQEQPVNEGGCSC

Variant | effect of a mutation on the interaction
K785M | disrupting interaction

Variants of: B2
Details: with bicl1_mouse Bicdl1, A0JNT9

Variant | effect of a mutation on the interaction
T27N | disrupting interaction

Variants of: B3
Details: with bicd2_mouse Bicd2, Q921C5

Variant | effect of a mutation on the interaction
T27N | disrupting interaction

Variants of: B4
Details: with bicl1_mouse Bicdl1, A0JNT9

Variant | effect of a mutation on the interaction
Q72R | increasing interaction

Variants of: B5
Details: with rab6a_mouse Rab6a
Target sequence in this assay (P35279 whole entry): as above

Variant | effect of a mutation on the interaction
MSAFCLGLAGRASAPAEPDSACCMELPAGAGDAVRSPATAAALVSFPGGPGELELALEEELALLAAGERSSEPGEHPQAEPESPVEGHGPPLPPPPTQDPELLSVIRQKEKDLVLAARLGKALLERNQDMSRQYEQMHKELTDKLEHLEQEKHELRRRFENREGEWEGRVSELETDVKQLQDELERQQLHLREADREKTRAVQELSEQNQRLLDQLSRASEVERQLSMQVHALKEDFREKNSSTNQHIIRLESLQAEIKMLSDRKRELEHRLSATLEENDLLQGTVEELQDRVLILERQGHDKDLQLHQSQLELQEVRLSYRQLQGKVEELTEERSLQSSAATSTSLLSEIEQSMEAEELEQEREQLRLQLWEAYCQVRYLCSHLRGNDSADSAVSTDSSMDESSETSSAKDVPAGSLRTALNDLKRLIQSIVDGVEPTVTLLSVEMTALKEERDRLRVTSEDKEPKEQLQKAIRDRDEAIAKKNAVELELAKCKMDMMSLNSQLLDAIQQMLNLSQQLEAWQDDMHRVIDRQLMDTHLKEQSRPAAAAFPRGHGVGRGQEPSTADGKRLFSFFRKI [K512M] | disrupting interaction

Variants of: B5
Details: with rab6b_mouse Rab6b

Variant | effect of a mutation on the interaction
MSAFCLGLAGRASAPAEPDSACCMELPAGAGDAVRSPATAAALVSFPGGPGELELALEEELALLAAGERSSEPGEHPQAEPESPVEGHGPPLPPPPTQDPELLSVIRQKEKDLVLAARLGKALLERNQDMSRQYEQMHKELTDKLEHLEQEKHELRRRFENREGEWEGRVSELETDVKQLQDELERQQLHLREADREKTRAVQELSEQNQRLLDQLSRASEVERQLSMQVHALKEDFREKNSSTNQHIIRLESLQAEIKMLSDRKRELEHRLSATLEENDLLQGTVEELQDRVLILERQGHDKDLQLHQSQLELQEVRLSYRQLQGKVEELTEERSLQSSAATSTSLLSEIEQSMEAEELEQEREQLRLQLWEAYCQVRYLCSHLRGNDSADSAVSTDSSMDESSETSSAKDVPAGSLRTALNDLKRLIQSIVDGVEPTVTLLSVEMTALKEERDRLRVTSEDKEPKEQLQKAIRDRDEAIAKKNAVELELAKCKMDMMSLNSQLLDAIQQMLNLSQQLEAWQDDMHRVIDRQLMDTHLKEQSRPAAAAFPRGHGVGRGQEPSTADGKRLFSFFRKI [K512M] | disrupting interaction
